From patent US20140227283A1 (INSERM INSTITUT NATIONAL DE LA SANTE ET DE LA RECHERCHE …, published 2014)

What was measured:
[1] = target: human Axl extracellular domain fused to human Fc domain (hAxl-hFc protein; R&D system) (human) (UniProt P30530); experiment: SPR (BIAcore), hAxl-hFc on a CM5 chip; 3E3-E8 (666 nM) injected second, after Gas6 (625 nM), without removing Gas6
[2] = target: T1, human Mer-Fc (human, UniProt Q12866 26-499, limits assumed); experiment: ELISA on coated Fc fusion proteins
T1 construct: also called h-Mer; not shown: Fc part
T1 sequence (looked up): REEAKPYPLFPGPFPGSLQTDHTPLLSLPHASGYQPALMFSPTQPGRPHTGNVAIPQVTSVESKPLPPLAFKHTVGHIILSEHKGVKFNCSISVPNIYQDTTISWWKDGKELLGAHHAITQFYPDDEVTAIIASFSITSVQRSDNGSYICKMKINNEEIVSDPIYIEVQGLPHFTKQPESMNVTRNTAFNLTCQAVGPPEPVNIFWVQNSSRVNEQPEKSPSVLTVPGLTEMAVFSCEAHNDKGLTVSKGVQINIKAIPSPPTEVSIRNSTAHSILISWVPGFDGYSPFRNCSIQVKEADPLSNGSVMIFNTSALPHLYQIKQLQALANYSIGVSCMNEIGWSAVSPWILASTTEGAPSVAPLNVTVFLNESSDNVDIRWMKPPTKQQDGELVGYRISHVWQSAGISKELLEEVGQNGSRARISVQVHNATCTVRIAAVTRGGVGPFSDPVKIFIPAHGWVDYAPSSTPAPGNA
Method: (§1) FIG. 1: ELISA experiments to investigate the affinity and the specificity of mouse monoclonal antibodies against hAxl. […] After washing, HRP-conjugated anti-mouse IgG was added.

[3] = target: T2, Tyro-3-Fc (h-Tyro-3) (human, UniProt Q06418 41-428, limits assumed); experiment: ELISA on coated Fc fusion proteins
T2 construct: also called human Tyro-3-Fc; not shown: Fc part
T2 sequence (looked up): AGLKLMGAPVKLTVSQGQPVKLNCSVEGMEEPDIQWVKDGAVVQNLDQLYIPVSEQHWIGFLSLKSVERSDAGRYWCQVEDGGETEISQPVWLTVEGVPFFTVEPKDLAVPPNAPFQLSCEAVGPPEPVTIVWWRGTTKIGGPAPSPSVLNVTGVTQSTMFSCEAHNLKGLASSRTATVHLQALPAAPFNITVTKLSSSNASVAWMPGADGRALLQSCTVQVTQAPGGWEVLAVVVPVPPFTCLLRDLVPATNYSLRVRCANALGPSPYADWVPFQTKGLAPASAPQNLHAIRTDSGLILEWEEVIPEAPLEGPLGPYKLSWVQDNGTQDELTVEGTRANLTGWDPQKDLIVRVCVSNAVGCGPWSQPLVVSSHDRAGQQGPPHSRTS
Method: as §1

[4] = target: T3, mouse Axl-Fc (mouse, UniProt Q00993 20-443, limits assumed); experiment: ELISA on coated Fc fusion proteins
T3 construct: also called m-Axl; not shown: Fc part
T3 sequence (looked up): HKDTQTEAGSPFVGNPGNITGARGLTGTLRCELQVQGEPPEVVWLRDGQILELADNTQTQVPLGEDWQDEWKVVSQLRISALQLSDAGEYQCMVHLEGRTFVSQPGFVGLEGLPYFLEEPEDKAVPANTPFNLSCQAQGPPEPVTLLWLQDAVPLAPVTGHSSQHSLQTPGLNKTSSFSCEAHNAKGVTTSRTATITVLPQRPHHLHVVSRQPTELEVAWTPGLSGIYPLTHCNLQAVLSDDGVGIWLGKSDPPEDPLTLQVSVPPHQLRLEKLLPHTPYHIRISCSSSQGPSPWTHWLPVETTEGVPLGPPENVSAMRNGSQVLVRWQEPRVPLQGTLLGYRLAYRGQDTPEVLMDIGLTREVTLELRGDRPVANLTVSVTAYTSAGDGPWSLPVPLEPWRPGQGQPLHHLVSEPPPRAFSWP
Method: as §1

[5] = target: human Axl extracellular domain fused to human Fc domain (hAxl-hFc protein; R&D system) (human) (UniProt P30530); experiment: SPR (BIAcore-3000), hAxl-hFc amine-coupled on a CM5 chip, mAb injected at 2 to 133 nM, 25° C., one-to-one Langmuir model
[6] = target: human Axl extracellular domain fused to human Fc domain (hAxl-hFc protein; R&D system) (human) (UniProt P30530); experiment: SPR (BIAcore), hAxl-hFc on a CM5 chip; 3E3-E8 (666 nM) injected first, before Gas6
[7] = target: T4, human Axl on the surface of cells (human, UniProt P30530 26-894); experiment: flow cytometry on A549 cells
T4 construct: whole, on cells; Endogenous Axl of the cell lines; also called cell surface Axl; Axl receptor
T4 sequence (looked up): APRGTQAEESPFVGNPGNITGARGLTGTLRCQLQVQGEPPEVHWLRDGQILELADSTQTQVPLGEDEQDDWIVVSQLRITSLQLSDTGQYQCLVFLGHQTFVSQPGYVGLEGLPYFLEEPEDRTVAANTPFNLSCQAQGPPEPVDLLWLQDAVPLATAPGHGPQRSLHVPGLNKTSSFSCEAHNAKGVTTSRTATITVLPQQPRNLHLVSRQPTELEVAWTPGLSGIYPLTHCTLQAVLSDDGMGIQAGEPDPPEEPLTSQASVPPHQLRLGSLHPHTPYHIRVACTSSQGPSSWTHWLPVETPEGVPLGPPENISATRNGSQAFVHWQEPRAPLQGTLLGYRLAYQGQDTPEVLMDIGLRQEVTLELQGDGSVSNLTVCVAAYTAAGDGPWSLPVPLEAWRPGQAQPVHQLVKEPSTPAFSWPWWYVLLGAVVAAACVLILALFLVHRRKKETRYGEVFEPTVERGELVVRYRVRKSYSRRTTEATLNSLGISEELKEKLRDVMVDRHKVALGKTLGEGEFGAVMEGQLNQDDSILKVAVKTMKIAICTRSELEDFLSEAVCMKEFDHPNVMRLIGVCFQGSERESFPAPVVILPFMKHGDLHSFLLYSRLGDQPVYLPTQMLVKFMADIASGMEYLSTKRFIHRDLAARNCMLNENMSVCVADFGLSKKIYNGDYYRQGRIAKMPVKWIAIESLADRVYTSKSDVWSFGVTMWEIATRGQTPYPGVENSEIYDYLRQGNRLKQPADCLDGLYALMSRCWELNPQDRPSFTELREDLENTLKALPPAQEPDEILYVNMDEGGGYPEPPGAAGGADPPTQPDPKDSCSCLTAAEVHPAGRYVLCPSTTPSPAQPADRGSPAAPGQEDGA
Source text: FIG. 2: Flow cytometry analysis of cell surface Axl in A549.

Response (RU) [1]: 2420 RU
binding result [2]: no binding
binding result [3]: no binding
binding result [4]: no binding
Kd [5]: 1.6 nM
Response (RU) [6]: 2500 RU
binding result [7]: binds
B1: murine anti-Axl monoclonal antibody 3E3E8 (antibody, V domains shown)
VH: QVQLKESGPGLVAPSQSLSITCSVSGFSLTNYAVHWVRQPPGKGLEWLGVIWAGGSTNYNSALMSRLRISKDNSKSQVFFKMNSLQTDDTAMYYCARYYGSSLYPMDYWGQGTSVTVSS
VL: DIVMTQAAPSVPVTPGESVSISCRSSKSLLHSNGNTYLYWFLQRPGQSPQLLIYRMSNLASGVPDRFSGSGSGTVFTLRISGVEAEDVGVYYCMQHLEYPWTFGGGTELEIK
notes: also called mAb 3E3-E8; mAb 3E3E8
